Laboratory results: patent publication US7078382 (dated 2006)

B1: native VEGF (8-109) (ligand)
chain: GQNHHEVVKFMDVYQRSYCHPIETLVDIFQEYPDEIEYIFKPSCVPLMRCGGCCNDEGLECVPTEESNITMQIMRIKPHQGQHIGEMSFLQHNKCECRPKKD
B2: LK-VRB-17s (ligand)
chain: APMAEGGGQNHHEVVKFEDVLRRSYCHPIETLVDIFQEYPDEIEYIFKPSCVPLMRCGGCCNSEMRECVPTEESNITMQIMRIKPHQGQHIGEMSFLQHNKCECRPKKD
B3: LK-VRB-18s (ligand)
chain: APMAEGGGQNHHEVVKFEDVLQRSSCHPIETLVDIFQEYPDEIEYIFKPSCVPLMRCGGCCNSEMRECVPTEESNITMQIMRIKPHQGQHIGEMSFLQHNKCECRPKKD
B4: LK-VRB-24s (ligand)
chain: APMAEGGGQNHHEVVKFEDVLRRSSCHPIETLVDIFQEYPDEIEYIFKPSCVPLMRCGGCCNSEMLECVPTEESNITMQIMRIKPHQGQHIGEMSFLQHNKCECRPKKD
B5: LK-VRB-26s (ligand)
chain: APMAEGGGQNHHEVVKFEDVLRRSSCHPIETLVDIFQEYPDEIEYIFKPSCVPLMRCGGCCNDEMRECVPTEESNITMQIMRIKPHQGQHIGEMSFLQHNKCECRPKKD
B6: LK-VRB-14s (ligand)
chain: APMAEGGGQNHHEVVKFMDVLRRSYCHPIETLVDIFQEYPDEIEYIFKPSCVPLMRCGGCCNSEMRECVPTEESNITMQIMRIKPHQGQHIGEMSFLQHNKCECRPKKD
B7: LK-VRB-15s (ligand)
chain: APMAEGGGQNHHEVVKFMDVLQRSSCHPIETLVDIFQEYPDEIEYIFKPSCVPLMRCGGCCNSEMRECVPTEESNITMQIMRIKPHQGQHIGEMSFLQHNKCECRPKKD
B8: LK-VRB-16s (ligand)
chain: APMAEGGGQNHHEVVKFMDVYRRSSCHPIETLVDIFQEYPDEIEYIFKPSCVPLMRCGGCCNSEMRECVPTEESNITMQIMRIKPHQGQHIGEMSFLQHNKCECRPKKD
B9: LK-VRB-21s (ligand)
chain: APMAEGGGQNHHEVVKFEDVLRRSSCHPIETLVDIFQEYPDEIEYIFKPSCVPLMRCGGCCNSEGLECVPTEESNITMQIMRIKPHQGQHIGEMSFLQHNKCECRPKKD
B10: LK-VRB-3s (ligand)
chain: APMAEGGGQNHHEVVKIEDVFKRSSCHPIETLVDIFQEYPDEIEYIFKPSCVPLMRCGGCCNDEGLECVPTEESNITMQIMRIKPHQGQHIGEMSFLQHNKCECRPKKD
B11: LK-VRB-20s (ligand)
chain: APMAEGGGQNHHEVVKFMDVLRRSSCHPIETLVDIFQEYPDEIEYIFKPSCVPLMRCGGCCNSEMRECVPTEESNITMQIMRIKPHQGQHIGEMSFLQHNKCECRPKKD
B12: LK-VRB-22s (ligand)
chain: APMAEGGGQNHHEVVKFEDVLRRSSCHPIETLVDIFQEYPDEIEYIFKPSCVPLMRCGGCCNDEMLECVPTEESNITMQIMRIKPHQGQHIGEMSFLQHNKCECRPKKD
B13: LK-VRB-23s (ligand)
chain: APMAEGGGQNHHEVVKFEDVLRRSSCHPIETLVDIFQEYPDEIEYIFKPSCVPLMRCGGCCNDEGRECVPTEESNITMQIMRIKPHQGQHIGEMSFLQHNKCECRPKKD
B14: LK-VRB-13s (ligand)
chain: APMAEGGGQNHHEVVKFEDVYQRSSCHPIETLVDIFQEYPDEIEYIFKPSCVPLMRCGGCCNSEMRECVPTEESNITMQIMRIKPHQGQHIGEMSFLQHNKCECRPKKD
B15: LK-VRB-12s (ligand)
chain: APMAEGGGQNHHEVVKFEDVYRRSYCHPIETLVDIFQEYPDEIEYIFKPSCVPLMRCGGCCNSEMRECVPTEESNITMQIMRIKPHQGQHIGEMSFLQHNKCECRPKKD
B16: LK-VRB-25s (ligand)
chain: APMAEGGGQNHHEVVKFEDVLRRSSCHPIETLVDIFQEYPDEIEYIFKPSCVPLMRCGGCCNSEGRECVPTEESNITMQIMRIKPHQGQHIGEMSFLQHNKCECRPKKD
B17: LK-VRB-7s* (ligand)
chain: APMAEGGGQNHHEVVKFEDVYQRSYCHPIETLVDIFQEYPDEIEYIFKPSCVPLMRCGGCCNSEMRECVPTEESNITMQIMRIKPHQGQHIGEMSFLQHNKCECRPKKD
B18: LK-VRB-2s* (ligand)
chain: APMAEGGGQNHHEVVKFMDVYQRSYCHPIETLVDIFQEYPDEIEYIFKPSCVPLMRCGGCCNSEMRECVPTEESNITMQIMRIKPHQGQHIGEMSFLQHNKCECRPKKD
B19: LK-VRB-10s (ligand)
chain: APMAEGGGQNHHEVVKFMDVYQRSSCHPIETLVDIFQEYPDEIEYIFKPSCVPLMRCGGCCNSEMRECVPTEESNITMQIMRIKPHQGQHIGEMSFLQHNKCECRPKKD
B20: LK-VRB-8s* (ligand)
chain: APMAEGGGQNHHEVVKFMDVLQRSYCHPIETLVDIFQEYPDEIEYIFKPSCVPLMRCGGCCNSEMRECVPTEESNITMQIMRIKPHQGQHIGEMSFLQHNKCECRPKKD
B21: LK-VRB-4s (ligand)
chain: APMAEGGGQNHHEVVKIEDVFERSICHPIETLVDIFQEYPDEIEYIFKPSCVPLMRCGGCCNDEGLECVPTEESNITMQIMRIKPHQGQHIGEMSFLQHNKCECRPKKD
B22: LK-VRB-11s (ligand)
chain: APMAEGGGQNHHEVVKFEDVLQRSYCHPIETLVDIFQEYPDEIEYIFKPSCVPLMRCGGCCNSEMRECVPTEESNITMQIMRIKPHQGQHIGEMSFLQHNKCECRPKKD
B23: LK-VRB-9s (ligand)
chain: APMAEGGGQNHHEVVKFMDVYRRSYCHPIETLVDIFQEYPDEIEYIFKPSCVPLMRCGGCCNSEMRECVPTEESNITMQIMRIKPHQGQHIGEMSFLQHNKCECRPKKD
B24: LK-VRB-2f (ligand)
chain: APMAEGGGQNHHEVVKFMDVYQRSYCHPIETLVDIFQEYPDEIEYIFKPSCVPLMRCGGCCNSEMRECVPTEESNITMQIMRIKPHQGQHIGEMSFLQHNKCECRPKKDRARQENPCGPCSERRKHLFVQDPQTCKCSCKNTDSRCKARQLELNERTCRCDKPRR
notes: also called KDR-full

How the values were obtained:
[1] = target: KDR receptor on human umbilical vein endothelial cells (HUVEC) (human, UniProt P35968 20-1356); experiment: cell-based or functional assay
[2] = target: KDR receptor with a gD tag at the N-terminus, on CHO cells (UniProt P35968 20-1356); experiment: cell-based or functional assay
Flt-IgG = target: T1, Flt-IgG (human, UniProt P17948 27-758, limits assumed); experiment: competition ELISA, biotinylated native VEGF as tracer, Flt-IgG captured by anti-human Fc
T1 construct: Only described as 'a chimeric Flt-human Fc molecule'; captured by rabbit F(ab')2 to human IgG Fc; also called chimeric Flt-human Fc molecule; not shown: human IgG Fc

KDR (1-3) = target: T2, KDR (1-3) (UniProt P35968 20-327, limits assumed); experiment: competition ELISA, biotinylated native VEGF (8-109) as tracer, KDR (1-3) captured by mAb MAKD5
T2 construct: domain: KDR (1-3); Soluble KDR (1-3) at 1 ug/ml, captured on the plate by anti-KDR monoclonal antibody MAKD5; also called KDR (1-3) monomer
T2 sequence (P35968 20-327 limits assumed): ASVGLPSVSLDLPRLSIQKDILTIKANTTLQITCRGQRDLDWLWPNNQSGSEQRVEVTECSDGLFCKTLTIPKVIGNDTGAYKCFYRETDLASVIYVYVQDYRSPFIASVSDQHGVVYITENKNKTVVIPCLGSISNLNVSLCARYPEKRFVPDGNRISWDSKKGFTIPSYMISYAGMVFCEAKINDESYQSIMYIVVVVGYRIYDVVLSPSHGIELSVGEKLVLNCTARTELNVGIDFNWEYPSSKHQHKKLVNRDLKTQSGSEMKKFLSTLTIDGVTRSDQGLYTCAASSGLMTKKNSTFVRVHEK

T1 sequence (P17948 27-758 limits assumed): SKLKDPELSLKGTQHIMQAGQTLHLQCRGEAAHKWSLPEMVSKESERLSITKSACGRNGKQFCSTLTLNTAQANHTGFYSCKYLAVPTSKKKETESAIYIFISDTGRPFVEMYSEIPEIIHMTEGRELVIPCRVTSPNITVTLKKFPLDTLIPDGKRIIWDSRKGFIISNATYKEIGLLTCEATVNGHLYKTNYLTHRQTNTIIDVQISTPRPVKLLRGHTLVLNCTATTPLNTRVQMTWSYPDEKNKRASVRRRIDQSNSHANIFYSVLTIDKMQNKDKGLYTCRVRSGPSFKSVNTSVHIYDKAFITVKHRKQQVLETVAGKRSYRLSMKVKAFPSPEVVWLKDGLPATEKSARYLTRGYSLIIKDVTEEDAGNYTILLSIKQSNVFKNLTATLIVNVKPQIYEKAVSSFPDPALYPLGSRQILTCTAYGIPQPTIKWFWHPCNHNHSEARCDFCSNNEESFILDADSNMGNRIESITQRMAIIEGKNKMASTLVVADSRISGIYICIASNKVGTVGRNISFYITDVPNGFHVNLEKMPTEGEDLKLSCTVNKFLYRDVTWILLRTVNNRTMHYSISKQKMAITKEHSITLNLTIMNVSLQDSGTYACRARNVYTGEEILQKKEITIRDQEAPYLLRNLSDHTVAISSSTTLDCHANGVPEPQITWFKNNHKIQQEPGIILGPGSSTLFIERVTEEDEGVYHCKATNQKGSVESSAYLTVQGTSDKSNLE
Sequence of KDR receptor on human umbilical vein endothelial cells (HUVEC) (P35968 20-1356): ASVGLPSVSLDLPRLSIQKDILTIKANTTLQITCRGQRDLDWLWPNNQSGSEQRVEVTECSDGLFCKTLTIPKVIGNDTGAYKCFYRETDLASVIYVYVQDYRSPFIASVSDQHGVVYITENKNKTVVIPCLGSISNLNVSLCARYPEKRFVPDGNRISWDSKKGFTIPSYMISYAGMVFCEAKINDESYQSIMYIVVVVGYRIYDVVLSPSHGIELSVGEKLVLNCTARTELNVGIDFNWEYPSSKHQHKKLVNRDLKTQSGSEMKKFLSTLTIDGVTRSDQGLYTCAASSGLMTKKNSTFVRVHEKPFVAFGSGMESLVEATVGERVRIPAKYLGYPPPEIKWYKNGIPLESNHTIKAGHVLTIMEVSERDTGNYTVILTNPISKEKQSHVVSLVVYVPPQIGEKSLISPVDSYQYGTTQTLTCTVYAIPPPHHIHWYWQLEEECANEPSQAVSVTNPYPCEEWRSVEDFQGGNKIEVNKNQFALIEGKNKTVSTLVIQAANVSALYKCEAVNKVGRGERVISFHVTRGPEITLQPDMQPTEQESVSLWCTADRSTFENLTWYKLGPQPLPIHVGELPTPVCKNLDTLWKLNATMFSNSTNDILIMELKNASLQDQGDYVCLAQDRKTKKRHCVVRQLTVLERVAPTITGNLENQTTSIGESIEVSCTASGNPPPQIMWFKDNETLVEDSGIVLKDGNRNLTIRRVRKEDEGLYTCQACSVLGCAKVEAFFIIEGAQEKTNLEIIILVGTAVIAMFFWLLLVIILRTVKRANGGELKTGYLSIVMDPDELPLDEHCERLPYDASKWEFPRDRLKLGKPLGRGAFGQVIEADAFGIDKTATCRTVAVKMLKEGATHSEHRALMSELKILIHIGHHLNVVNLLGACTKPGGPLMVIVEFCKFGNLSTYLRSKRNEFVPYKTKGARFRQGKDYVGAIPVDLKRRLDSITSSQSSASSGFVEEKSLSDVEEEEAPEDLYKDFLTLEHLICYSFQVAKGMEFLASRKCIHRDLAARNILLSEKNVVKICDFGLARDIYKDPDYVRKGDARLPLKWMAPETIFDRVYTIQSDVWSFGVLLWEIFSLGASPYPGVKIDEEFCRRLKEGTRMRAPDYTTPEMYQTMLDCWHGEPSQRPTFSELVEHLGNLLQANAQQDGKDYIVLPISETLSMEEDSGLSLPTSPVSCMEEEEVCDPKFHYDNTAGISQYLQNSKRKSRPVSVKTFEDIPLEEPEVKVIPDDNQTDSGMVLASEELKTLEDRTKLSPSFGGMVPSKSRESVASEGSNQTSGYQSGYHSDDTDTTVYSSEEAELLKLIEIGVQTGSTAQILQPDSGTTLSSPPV

Binder	IC50 (KDR (1-3)) [nM]	Relative Binding Affinity (KDR (1-3))	also measured
B1	–	–	Endothelial Cell Proliferation Activity (HUVEC, 3H-thymidine), concentration [1]: 0.5 nM; Phosphorylation-Inducing Activity (KIRA), concentration at midpoint [2]: 2 nM; IC50 (Flt-IgG): 0.42 nM
B2	3	3 fold of native VEGF (8-109)	–
B3	130	130 fold of native VEGF (8-109)	–
B4	10	10 fold of native VEGF (8-109)	–
B5	23	23 fold of native VEGF (8-109)	–
B6	0.5	0.5 fold of native VEGF (8-109)	–
B7	2	2 fold of native VEGF (8-109)	–
B8	0.6	0.6 fold of native VEGF (8-109)	–
B9	3	3 fold of native VEGF (8-109)	–
B10	1	1 fold of native VEGF (8-109)	Phosphorylation-Inducing Activity (KIRA), concentration at midpoint [2]: 2 nM; Phosphorylation-Inducing Activity (KIRA), ratio to native VEGF (8-109) [2]: 1 fold of native VEGF (8-109); IC50 (Flt-IgG): 170 nM; Relative Binding Affinity (Flt-IgG): 400 fold of native VEGF (8-109)
B11	2	2 fold of native VEGF (8-109)	–
B12	4	4 fold of native VEGF (8-109)	–
B13	11	11 fold of native VEGF (8-109)	–
B14	14	14 fold of native VEGF (8-109)	–
B15	0.4	0.4 fold of native VEGF (8-109)	–
B16	4	4 fold of native VEGF (8-109)	–
B17	1	1 fold of native VEGF (8-109)	Endothelial Cell Proliferation Activity (HUVEC, 3H-thymidine), concentration [1]: 0.5 nM; Endothelial Cell Proliferation Activity (HUVEC, 3H-thymidine), ratio to native VEGF (8-109) [1]: 1 fold of native VEGF (8-109); Relative Binding Affinity (Flt-IgG): > 15000 fold of native VEGF (8-109)
B18	–	–	Endothelial Cell Proliferation Activity (HUVEC, 3H-thymidine), concentration [1]: 0.05 nM; Phosphorylation-Inducing Activity (KIRA), concentration at midpoint [2]: 2 nM
B19	0.5	0.5 fold of native VEGF (8-109)	–
B20	0.5	0.5 fold of native VEGF (8-109)	Endothelial Cell Proliferation Activity (HUVEC, 3H-thymidine), concentration [1]: 0.5 nM; Endothelial Cell Proliferation Activity (HUVEC, 3H-thymidine), ratio to native VEGF (8-109) [1]: 1 fold of native VEGF (8-109); Relative Binding Affinity (Flt-IgG): > 21000 fold of native VEGF (8-109)
B21	1	1 fold of native VEGF (8-109)	Phosphorylation-Inducing Activity (KIRA), concentration at midpoint [2]: 1 nM; Phosphorylation-Inducing Activity (KIRA), ratio to native VEGF (8-109) [2]: 0.5 fold of native VEGF (8-109); IC50 (Flt-IgG): 100 nM; Relative Binding Affinity (Flt-IgG): 200 fold of native VEGF (8-109)
B22	2	2 fold of native VEGF (8-109)	–
B23	0.5	0.5 fold of native VEGF (8-109)	Relative Binding Affinity (Flt-IgG): 300 fold of native VEGF (8-109)
B24	–	–	Endothelial Cell Proliferation Activity (HUVEC, 3H-thymidine), concentration [1]: 0.05 nM; IC50 (Flt-IgG): 19 nM
